Laboratory results taken from US20140140926A1.
No end group written: not given here.

Key:
[1] = target: soluble hSIRP-alpha (human) (UniProt P78324); experiment: inhibition of soluble hSIRP-alpha binding to polypeptide beads by soluble peptide
[2] = target: soluble hSIRP-alpha (human) (UniProt P78324); experiment: flow cytometry, biotinylated peptide on streptavidin polystyrene beads binding soluble hSIRP-alpha, saturation binding fit

**Q.** For EVTELTREGE (synthesized without attachment of biotin) [FG-hairpin (10-aa, …)], which Ki [1] is on record?
**A.** The Ki was 100 to 200 nM.

**Q.** With GNYTCEVTELTREGETIIELK (also: biotin via aminohexanoic acid (C6) or PEG linker, site not given here) [FG-peptide (21-aa, …)] as the binder, how does the Kd [2] read?
**A.** Its Kd is 110 to 160 nM.
